Data set [1] addresses T1, SpCas9-His (Streptococcus pyogenes, UniProt Q99ZW2 1-1368). Nature of the data set: EMSA. A general note: In EMSA bound probe runs differently from free probe, usually more slowly.
Data set [2] deals with T1, SpCas9-His. Nature of the data set: SPR.

T1 sequence (Q99ZW2 whole entry): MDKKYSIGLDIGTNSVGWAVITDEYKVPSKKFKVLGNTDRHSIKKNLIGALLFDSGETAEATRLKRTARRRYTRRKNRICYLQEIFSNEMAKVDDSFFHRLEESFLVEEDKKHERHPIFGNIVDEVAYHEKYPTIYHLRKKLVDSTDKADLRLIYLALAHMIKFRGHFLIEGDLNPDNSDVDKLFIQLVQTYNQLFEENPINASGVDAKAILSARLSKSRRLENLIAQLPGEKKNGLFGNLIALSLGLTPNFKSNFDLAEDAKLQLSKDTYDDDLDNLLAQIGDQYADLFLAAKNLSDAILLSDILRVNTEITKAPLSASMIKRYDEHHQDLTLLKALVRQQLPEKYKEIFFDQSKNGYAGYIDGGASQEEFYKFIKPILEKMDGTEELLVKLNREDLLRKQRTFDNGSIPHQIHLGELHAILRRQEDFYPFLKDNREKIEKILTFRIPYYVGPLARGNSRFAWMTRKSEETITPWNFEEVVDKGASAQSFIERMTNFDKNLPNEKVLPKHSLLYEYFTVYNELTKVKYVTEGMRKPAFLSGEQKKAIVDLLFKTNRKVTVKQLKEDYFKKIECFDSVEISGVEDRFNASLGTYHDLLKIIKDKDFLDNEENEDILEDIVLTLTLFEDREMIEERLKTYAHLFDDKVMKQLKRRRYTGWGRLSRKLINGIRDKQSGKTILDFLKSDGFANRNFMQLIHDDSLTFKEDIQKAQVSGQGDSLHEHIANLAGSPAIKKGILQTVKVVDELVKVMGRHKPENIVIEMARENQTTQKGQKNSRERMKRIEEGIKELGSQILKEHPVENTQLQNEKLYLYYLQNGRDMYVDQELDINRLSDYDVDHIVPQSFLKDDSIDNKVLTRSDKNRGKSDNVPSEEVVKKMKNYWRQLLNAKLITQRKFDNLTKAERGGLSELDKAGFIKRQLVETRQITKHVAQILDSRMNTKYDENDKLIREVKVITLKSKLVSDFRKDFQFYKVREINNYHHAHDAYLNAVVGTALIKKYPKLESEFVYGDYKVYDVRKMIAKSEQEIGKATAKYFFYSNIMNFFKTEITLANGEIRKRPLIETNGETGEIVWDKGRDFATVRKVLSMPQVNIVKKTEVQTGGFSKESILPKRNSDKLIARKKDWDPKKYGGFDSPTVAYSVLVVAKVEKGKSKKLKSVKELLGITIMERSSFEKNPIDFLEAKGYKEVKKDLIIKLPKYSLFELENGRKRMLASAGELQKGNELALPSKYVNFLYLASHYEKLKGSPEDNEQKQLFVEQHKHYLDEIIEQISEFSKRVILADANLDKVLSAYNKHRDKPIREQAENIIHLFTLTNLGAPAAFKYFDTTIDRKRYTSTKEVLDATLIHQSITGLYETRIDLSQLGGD

With GGTCCTCACACCGCTGTGTGCCGCAACACTGTGAGGACC (structured_DNA) [SA-Ap (streptavidin aptamer)], in the data set with SpCas9-His [1], the binding result is recorded as “no binding”.
Take GAGGCTCTCACAGTAATGTGAGAGCCT (structured_DNA) [Loop-NC for Biacore]: the binding result with SpCas9-His [2] is “no binding”.
With GAGGCTCTCACAGTAATGTGAGAGCCT (structured_DNA) [Loop-NC for EMSA], the binding result with SpCas9-His [1] is “no binding”.
For the molecule GAGGCTCTCACAGCGCGCCTTTCGTTGTGAGAGCCTC (structured_DNA) [SS21 NM2], in the data set with SpCas9-His [1], the binding result is listed as “no binding”.
As to GAGGCTCTCACATCGCGCCTTTCCCCAGCTTTCGGTGTGAGAGCCTC (structured_DNA) [S21 for Biacore], binding with SpCas9-His [2] was put at a Kd of 630 pM.

(Values after paper PMC7897479.)
